The values below come from article PMC9177957 (Nucleic Acids Research, 2022).

The target of the test is T1, wildtype NP of influenza A/NT/60/1968 (H3N2) virus (influenza A/NT/60/1968 (H3N2) virus, UniProt P03467 1-498).
T1 construct: not shown: GST, N-terminal, cleaved
The experiment in a line: pull-down. The following applies: both partners purified.

B1: GST-tagged full-length human ANP32B (natural protein)
chain: MDMKRRIHLELRNRTPAAVRELVLDNCKSNDGKIEGLTAEFVNLEFLSLINVGLISVSNLPKLPKLKKLELSENRIFGGLDMLAEKLPNLTHLNLSGNKLKDISTLEPLKKLECLKSLDLFNCEVTNLNDYRESVFKLLPQLTYLDGYDREDQEAPDSDAEVDGVDEEEEDEEGEDEEDEDDEDGEEEEFDEEDDEDEDVEGDEDDDEVSEEEEEFGLDEEDEDEDEDEEEEEGGKGEKRKRETDDEGEDD
notes: also called GST-huANP32B; huANP32B WT; source: E. coli, purified (Glutathione Sepharose, eluted with reduced glutathione); not shown: GST, N-terminal, kept
In the case of B1, the binding result is listed as “binds”.

B2: GST-tagged full-length human ANP32A (natural protein)
chain: MEMGRRIHLELRNRTPSDVKELVLDNSRSNEGKLEGLTDEFEELEFLSTINVGLTSIANLPKLNKLKKLELSDNRVSGGLEVLAEKCPNLTHLNLSGNKIKDLSTIEPLKKLENLKSLDLFNCEVTNLNDYRENVFKLLPQLTYLDGYDRDDKEAPDSDAEGYVEGLDDEEEDEDEEEYDEDAQVVEDEEDEDEEEEGEEEDVSGEEEEDEEGYNDGEVDDEEDEEELGEEERGQKRKREPEDEGEDDD
notes: also called GST-huANP32A; huANP32A WT; source: E. coli, purified (Glutathione Sepharose, eluted with reduced glutathione); not shown: GST, N-terminal, kept
Consider B2, for which the binding result is reported as “binds”.
